Test results: US5972599, “High affinity nucleic acid ligands of cytokines” (NeXstar Pharmaceuticals, Inc.)

Legend:
TNF-alpha [1] = molecular target: T1, TNF-alpha (Homo sapiens, UniProt P01375 P01375:77-233); test: filter; DPBS; class I; details: tags: Genzyme or R&D Systems; chain copies: 3 inferred
TNF-alpha [2] = molecular target: T1, TNF-alpha; test: competition; 125I-hTNFa binding to U937 cells, 4 C; details: tags: Genzyme or R&D Systems; chain copies: 3 inferred
Protocol: (§1) A receptor binding competition assay was used to determine the bioactivity of the RNA ligands. ^125I labelled hTNFα at 0.1 nM was incubated in 50 µl of binding medium (PBS with 0.5 mM Mg^++, 0.2% BSA, 0.02% sodium azide, 1 U/µl RNasin) for 15 min at 4° C. with serially diluted competitors at 10^-4 to 10^-11 M, and 1×10^4/µl U937 cells. Duplicate aliquots were subsequently removed, centrifuged through 2:1 dibutyl-phthalate:dinonyl-phthalate mixture to separate free and bound ^125I labelled hTNFα, and the radioactivity in the pellet was measured on a gamma counter. Nonspecific binding was determined by inclusion of a 200-fold molar excess of unlabeled TNF.

IFN-gamma [3] = molecular target: T2, IFN-gamma (Homo sapiens, UniProt P01579 P01579:24-161); test: filter; printed as '12 4 nM', decimal uncertain; details: tags: Genzyme (Cambridge MA); Upstate Biotechnology for early SELEX rounds; chain copies: 2 inferred
Protocol: (§2) The determination of equilibrium dissociation constants (Kds) for RNA pools was made subsequent to rounds 5, 8, 12, and 17 to monitor the progress of each SELEX. The Kds of RNA pools for mouse IFN-gamma (Genzyme Inc., Cambridge Mass.) were also determined after rounds 8 and 17. Kds were determined for individual ligands after cloning and sequencing of RNA pools and truncations (described below). Nitrocellulose filter binding was used to determine Kds as follows: filter discs were placed into a vacuum manifold and wetted with 5 ml of mPBS buffer. ^32P-labeled-RNA was incubated with serial dilutions of IFN-gamma in binding buffer for 5–10 min at 37° C. to allow binding to occur. Binding mixes were centrifuged as described above to remove aggregates, aspirated through the filter discs, and then immediately washed with 5 ml mPBS buffer. The filter discs were dried and counted in a liquid scintillation counter (Beckmann Instruments, Palo Alto Calif.). Equilibrium dissociation constants were determined by least square fitting of the data points using the Kaleidagraph™ graphics program (Synergy Software, Reading Pa.). […] Biphasic binding constants were calculated according to standard procedures. Kds were determined by least square fitting of the data points using the Kaleidagraph™ graphics program.

TNF-alpha [4] = molecular target: T1, TNF-alpha; test: filter; class II; clone 28A printed with the same sequence but no Kd; details: tags: Genzyme or R&D Systems; chain copies: 3 inferred
TNF-alpha [5] = molecular target: T1, TNF-alpha; test: filter; orphan; details: tags: Genzyme or R&D Systems; chain copies: 3 inferred
TNF-alpha [6] = molecular target: T1, TNF-alpha; test: competition; U937 cells; details: tags: Genzyme or R&D Systems; chain copies: 3 inferred
Protocol: as §1

IFN-gamma [7] = molecular target: T2, IFN-gamma; test: filter; biphasic 1.8/750 nM; details: tags: Genzyme (Cambridge MA); Upstate Biotechnology for early SELEX rounds; chain copies: 2 inferred
Protocol: as §2, with “Binding mixes were centrifuged as described above to remove aggregates, aspirated through the filter discs, and then immediately washed with 5 ml mPBS buffer.” left out
(§3) The Kds of individual RNAs within each group were determined by nitrocellulose filter binding as described above. The Kds were determined using either a monophasic or biphasic least squares fit of the data.

TNF-alpha [8] = molecular target: T1, TNF-alpha; test: FP; no value shown, Kd above 1 uM per footnote; filter binding, DPBS; details: tags: Genzyme or R&D Systems; chain copies: 3
IFN-gamma [9] = molecular target: T2, IFN-gamma; test: competition; 30 pM 125I-IFN-gamma, A549 cells; details: tags: Genzyme (Cambridge MA); Upstate Biotechnology for early SELEX rounds; chain copies: 2 inferred
Protocol: The cells were washed 3 times with PBS. […] Incubations were carried out at 4° C. with shaking for 2 hrs. The cells were washed 2 times with cold PBS to remove free IFN and detached with 0.5% SDS.

IFN-gamma [10] = molecular target: T2, IFN-gamma; test: filter; biphasic 2.7/103 nM; details: tags: Genzyme (Cambridge MA); Upstate Biotechnology for early SELEX rounds; chain copies: 2 inferred
Protocol: as §2, with “Binding mixes were centrifuged as described above to remove aggregates, aspirated through the filter discs, and then immediately washed with 5 ml mPBS buffer.” left out
as §3

IL-4 = IL-4 (Homo sapiens, UniProt P05112 P05112:25-153); test: filter; specificity control; details: tags: R&D Systems
IFN-gamma [11] = molecular target: T2, IFN-gamma; test: filter; specificity control; details: tags: Genzyme (Cambridge MA); Upstate Biotechnology for early SELEX rounds; chain copies: 2 inferred
IL-10 = IL-10 (Homo sapiens, UniProt P22301 P22301:19-178); test: filter; TEM buffer, 37 C; details: tags: Bachem or R & D Systems; chain copies: 2 inferred
Protocol: Internally-labeled RNA transcripts were prepared by including [γ-^32P]ATP in T7 RNA polymerase transcription reactions. Full-length transcripts were purified on 8% denaturing polyacrylamide gels to ensure size homogeneity. Gel-purified RNA was diluted to a concentration of ~5 nM in TEM buffer, heated to 80° C. then chilled on ice to facilitate secondary structure formation. RNA concentrations were kept lower than 100 pM in binding reactions. Briefly, equal amounts of RNA were incubated with varying amounts of IL-10 in 50 µL of TEM buffer for 10 min at 37° C. RNA-protein mixtures were passed through pre-wet nitrocellulose filters (0.2µ) and the filters were immediately washed with 5 mL of binding buffer. Radioactivity retained on filters was determined by liquid scintillation counting. The quantities of RNA bound to filters in the absence of protein was determined and used for background correction. The percentage of input RNA retained on each filter was plotted against the corresponding log protein concentration. The nonlinear least square method to obtain the dissociation constant (K_d).

IFN-gamma [12] = molecular target: T2, IFN-gamma; test: filter; biphasic 8.8/384 nM; details: tags: Genzyme (Cambridge MA); Upstate Biotechnology for early SELEX rounds; chain copies: 2 inferred
Protocol: as §2, with “Binding mixes were centrifuged as described above to remove aggregates, aspirated through the filter discs, and then immediately washed with 5 ml mPBS buffer.” left out
as §3

T1 sequence (P01375 77-233, one chain of several): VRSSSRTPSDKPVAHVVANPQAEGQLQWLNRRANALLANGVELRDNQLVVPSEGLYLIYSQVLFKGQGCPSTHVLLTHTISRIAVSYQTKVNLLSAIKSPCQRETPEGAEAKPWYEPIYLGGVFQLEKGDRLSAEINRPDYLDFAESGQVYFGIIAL
T2 sequence (P01579 24-161, one chain of several): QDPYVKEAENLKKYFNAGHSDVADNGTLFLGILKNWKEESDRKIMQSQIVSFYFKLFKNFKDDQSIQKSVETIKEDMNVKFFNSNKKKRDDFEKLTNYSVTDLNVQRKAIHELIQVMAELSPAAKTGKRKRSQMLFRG
Chain of IL-10 (P22301 19-178, one chain of several): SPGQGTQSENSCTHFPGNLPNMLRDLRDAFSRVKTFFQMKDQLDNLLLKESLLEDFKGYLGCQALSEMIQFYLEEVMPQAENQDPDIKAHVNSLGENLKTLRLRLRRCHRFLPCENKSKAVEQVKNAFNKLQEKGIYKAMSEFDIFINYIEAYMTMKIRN
Chain of IL-4 (P05112 25-153, one chain of several): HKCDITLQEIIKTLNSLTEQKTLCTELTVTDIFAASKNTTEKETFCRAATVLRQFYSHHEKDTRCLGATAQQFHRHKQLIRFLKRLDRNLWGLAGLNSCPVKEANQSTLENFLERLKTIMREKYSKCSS

B1: TNF 25A (ssRNA)
RNA: GGGAGCUCAGAAUAAACGCUCAAGGCCGCAUGCCCCUCCUAACAGCAUGCAACUUCGACAUGAGGCCCGGAUCCGGC
Q: For B1, which Kd (TNF-alpha [1]) is on record?
A: 40 nM

Q: What about the Ki (TNF-alpha [2]) of the same binder?
A: 21 nM

B2: IFN-gamma 2'NH2-17 truncate (ssRNA)
RNA: GGGAGGACGAUGCGGUGGUAGCGCGAUAUAGCGCUGGUAGGGUUGCCGGUG
modifications: 2'-NH2 all C and U
Q: With B2 as the binder, how does the Kd (IFN-gamma [3]) read?
A: 12.4 nM

B3: TNF 8C (ssRNA)
RNA: GGGAGCUCAGAAUAAACGCUCAAGUCCACACUUUGCCGAGCGUCCUAGUGUUCGACAUGAGGCCCGGAUCCGGC
Q: B3 was tested. Which Kd (TNF-alpha [4]) did it give?
A: 430 nM

B4: TNF 18C (ssRNA)
RNA: GGGAGCUCAGAAUAAACGCUCAAUGUCGAGUGCGAUGGAGGAGUAGGGAUGCAUUCGACAUGAGGCCCGGAUCCGGC
Q: How did the Kd (TNF-alpha [5]) turn out when B4 was run?
A: 460 nM

Q: And the Ki (TNF-alpha [6])?
A: 2500 nM

B5: IFN-gamma 2'NH2-17 (ssRNA)
RNA: GGGAGGACGAUGCGGUGGUAGCGCGAUAUAGCGCUGGUAGGGUUGCCGGUGAUCAGACGACUCGCCCGA
modifications: 2'-NH2 all C and U
Q: For B5, which Kd (IFN-gamma [7]) is on record?
A: 1.8 nM

B6: TNF 12A (ssRNA)
RNA: GGGAGCUCAGAAUAAACGCUCAACUUCUUGGCCCCGUCUCAAUGUCCGUACUUCUUCGACAUGAGGCCCGGAUCCGGC
Q: B6 was tested. Which Kd (TNF-alpha [8]) did it give?
A: > 1000 nM

B7: IFN-gamma 2'NH2-30 (ssRNA)
RNA: GGGAGGACGAUGCGGCAGGUAAUUACAUGAAGGUGGGUUAGGUACUUUCAGGGUCAGACGACUCGCCCGA
modifications: 2'-NH2 all C and U
Q: For B7, which IC50 (IFN-gamma [9]) is on record?
A: 10 nM

Q: And the Kd (IFN-gamma [10])?
A: 2.7 nM

B8: IL-10 ligand 43 (ssRNA)
RNA: GGGAGACAAGAAUAAACGCUCAAACAUCGUAUAACUCUAAGGGCCUGGAUAUACGAUGAAUUCGACAGGAGGCUCACAACAGGC
modifications: 2'-F all C and U
Q: What does the source list for B8?
A: binding result (IL-4): no binding; binding result (IFN-gamma [11]): no binding; Kd (IL-10): 213 nM

B9: IFN-gamma 2'F-27 (ssRNA)
RNA: GGGAGGACGAUGCGGAACACCCCCGGUCUGACGCUUGUUCCGAAUUCCUCCACCGUCAGACGACUCGCCCGA
modifications: 2'-F all C and U
Q: For B9, which Kd (IFN-gamma [12]) is on record?
A: 8.8 nM
